Our source for the Kd values is PMC9460772 (2022).

This assay concerns the target PPIA (Homo sapiens, UniProt P62937). In words: NMR.

In the case of PRPRPRPRPRPRPRPRPRPRPRPRPRPRPRPRPRPRPRPR [PR20 proline-arginine dipeptide repeat], binding was characterised by a dissociation constant (Kd) of 23 µM.
